Source: publication PMC4865107

Columns and labels:
[1] = system: Topo IV; test: EMSA; details: Topo IV alone; stated as bound poorly; 1 mM spermidine, 30 mM potassium glutamate, 10 mM DTT, 6 mM MgCl2, 10% glycerol, pH 7.4, 15 min at RT; 4% native PAGE (plasmid: 0.8% agarose, 0.5x TAE, 4 C)
[2] = system: Topo IV;XerC;XerD (Escherichia coli?;Escherichia coli?;Escherichia coli?); test: EMSA (agarose); details: 50 nM XerCD; migration delay seen with 40 nM Topo IV; 1 mM spermidine, 30 mM potassium glutamate, 10 mM DTT, 6 mM MgCl2, 10% glycerol, pH 7.4, 15 min at RT; 4% native PAGE (plasmid: 0.8% agarose, 0.5x TAE, 4 C)
[3] = system: Topo IV; test: EMSA (agarose); details: no XerCD; 200 nM Topo IV required for migration delay; 1 mM spermidine, 30 mM potassium glutamate, 10 mM DTT, 6 mM MgCl2, 10% glycerol, pH 7.4, 15 min at RT; 4% native PAGE (plasmid: 0.8% agarose, 0.5x TAE, 4 C)

Substance | Kd [1] [nM] | binding [2] [nM] | binding [3] [nM]
dif probe, 250 bp | > 100 | – | –
negatively supercoiled plasmid containing dif | – | 40 | 200
